Columns and labels:
[1] = target: Purified human C1q (Quidel Corp.) (human) (UniProt P02745); assay: reverse ELISA: PAP without competitor on C1q-coated plate
[2] = target: Highly purified FcγIII; assay: reverse ELISA: PAP without peptide on FcγIII-coated plate
[3] = target: Highly purified FcγIIa; assay: reverse ELISA: PAP without peptide on FcγIIa-coated plate
[4] = target: Highly purified FcγIIb; assay: reverse ELISA: PAP without peptide on FcγIIb-coated plate
[5] = target: Human wt tau protein (441 residues; Sigma-Aldrich) (human) (UniProt P10636); assay: reverse ELISA: PAP without peptide on plate coated with human wt tau
Chain of Human wt tau protein (441 residues; Sigma-Aldrich) (human) (P10636 other isoform, or with tags, fused parts or gaps limits assumed): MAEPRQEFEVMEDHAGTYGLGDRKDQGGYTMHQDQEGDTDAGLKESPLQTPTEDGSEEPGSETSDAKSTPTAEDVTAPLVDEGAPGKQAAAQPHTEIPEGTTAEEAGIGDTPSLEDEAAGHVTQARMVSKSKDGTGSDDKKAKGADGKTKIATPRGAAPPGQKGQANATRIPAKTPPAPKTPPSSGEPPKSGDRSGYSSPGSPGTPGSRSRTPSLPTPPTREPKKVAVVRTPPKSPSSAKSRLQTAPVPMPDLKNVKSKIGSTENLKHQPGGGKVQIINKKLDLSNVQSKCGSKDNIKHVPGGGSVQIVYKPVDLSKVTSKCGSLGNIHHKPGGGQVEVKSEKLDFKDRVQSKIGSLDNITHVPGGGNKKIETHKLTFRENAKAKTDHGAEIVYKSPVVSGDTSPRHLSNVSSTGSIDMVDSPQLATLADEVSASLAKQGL

[6] = target: Human wt β amyloid peptide 1-40 (amyloid precursor protein (APP) fragment 1-40; Sigma-Aldrich) (human); assay: reverse ELISA: PAP without peptide on plate coated with human wt β amyloid peptide 1-40

Chain of Preformed immune complex of peroxidase and rabbit anti-peroxidase IgG (PAP complex) (P00433 31-338, one chain of several): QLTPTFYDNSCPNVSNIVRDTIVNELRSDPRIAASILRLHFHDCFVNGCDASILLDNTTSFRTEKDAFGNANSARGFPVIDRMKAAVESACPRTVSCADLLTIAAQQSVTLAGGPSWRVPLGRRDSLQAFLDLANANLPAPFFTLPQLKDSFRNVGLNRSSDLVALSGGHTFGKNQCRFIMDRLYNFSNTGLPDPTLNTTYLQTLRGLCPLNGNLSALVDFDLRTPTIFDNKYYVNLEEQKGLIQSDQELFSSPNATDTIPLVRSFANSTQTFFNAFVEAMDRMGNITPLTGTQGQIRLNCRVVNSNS
Chain of Purified human C1q (Quidel Corp.) (human) (P02745 23-245 limits assumed, chain 1 of 3): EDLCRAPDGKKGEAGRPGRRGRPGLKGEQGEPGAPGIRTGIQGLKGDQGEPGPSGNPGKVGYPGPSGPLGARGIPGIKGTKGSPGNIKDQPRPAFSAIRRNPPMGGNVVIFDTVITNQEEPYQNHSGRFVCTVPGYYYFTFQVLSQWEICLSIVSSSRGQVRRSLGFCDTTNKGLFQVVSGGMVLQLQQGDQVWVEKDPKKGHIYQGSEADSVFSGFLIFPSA
Chain of Purified human C1q (Quidel Corp.) (human) (P02746 28-253 limits assumed, chain 2 of 3, further chain): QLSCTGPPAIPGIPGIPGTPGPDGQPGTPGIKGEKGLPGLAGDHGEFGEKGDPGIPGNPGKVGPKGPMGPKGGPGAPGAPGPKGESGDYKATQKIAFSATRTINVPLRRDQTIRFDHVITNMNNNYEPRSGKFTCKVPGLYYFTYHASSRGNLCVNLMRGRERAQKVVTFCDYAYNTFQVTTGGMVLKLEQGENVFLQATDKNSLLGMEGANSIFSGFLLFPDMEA
Chain of Purified human C1q (Quidel Corp.) (human) (P02747 29-245 limits assumed, chain 3 of 3, further chain): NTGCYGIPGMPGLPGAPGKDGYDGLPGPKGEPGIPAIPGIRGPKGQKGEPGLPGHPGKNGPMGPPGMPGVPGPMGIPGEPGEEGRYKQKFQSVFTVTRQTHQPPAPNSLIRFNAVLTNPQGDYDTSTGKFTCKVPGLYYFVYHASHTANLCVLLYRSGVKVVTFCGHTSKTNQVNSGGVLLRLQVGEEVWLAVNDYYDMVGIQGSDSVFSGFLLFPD

Substance: Preformed immune complex of peroxidase and rabbit anti-peroxidase IgG (PAP complex) (from UniProt P00433 31-338)
- OD 405 nm [1]: 2.35 OD
- OD 405 nm [2]: 1.59 OD
- OD 405 nm [3]: 1.6 OD
- OD 405 nm [4]: 1.39 OD
- OD 405 nm [5]: 0.695 OD
- OD 405 nm [6]: 3.28 OD
